From the Human Domainome abundance scans (Beltran et al. 2025)

B1: Calcium-binding protein 2, residues 155 to 219; numbered along this chain, Q9NPB3 (parent)
chain: RELRDAFREFDTNGDGRISVGELRAALKALLGERLSQREVDEILQDVDLNGDGLVDFEEFVRMMS

Variants of: B1
Assay: abundance fitness (aPCA) (normalised: wild type 0, dead -1); higher = more abundant; growth selection in yeast, the domain comes from the species named
Conditions: Homo sapiens

Abundance fitness of substitutions, site by site:
G53: P -0.188 | R -0.397 | S -0.05 | T -0.107 | V -0.063 | W -0.361 | Y -0.012
L54: A -0.211 | C -0.21 | D -0.208 | E -0.07 | F -0.212 | G 0.099 | H -0.292 | I -0.223 | K -0.207 | P -0.291 | Q -0.088 | R -0.283 | T 0.012 | V -0.241 | W -0.346 | Y -0.177
V55: A -0.189 | C -0.023 | D -1.16 | E -1.02 | F 0.048 | G -0.829 | H -0.382 | I -0.185 | K -0.691 | L -0.028 | M -0.338 | N -0.714 | P -0.874 | Q -0.391 | R -0.78 | S -0.394 | T -0.038 | W -0.192
D56: A 0.002 | C -0.321 | E 0.12 | F -0.862 | G -0.031 | H -0.015 | I -0.12 | K -0.103 | L -0.201 | M -0.262 | N -0.022 | P 0.009 | Q -0.153 | R -0.088 | S 0.078 | T 0.019 | V 0.044 | W -0.531 | Y -0.198
E58: A -0.077 | C -0.576 | D -0.061 | F -0.331 | G -0.003 | H -0.008 | K 0.102 | L -0.008 | M -0.202 | P -0.025 | Q -0.102 | R -0.117 | S -0.019 | T -0.088 | V -0.105 | W -0.431 | Y -0.43
E59: A -0.072 | C 0.033 | D -0.405 | F -0.146 | G -0.171 | H -0.164 | I -0.051 | K -0.092 | L 0.071 | M 0.059 | N -0.282 | P -0.1 | Q -0.025 | R -0.089 | S -0.075 | T 0.088 | V 0.083 | W -0.259 | Y -0.157
F60: A -0.471 | C -0.176 | D -0.71 | E -0.672 | H -0.875 | I 0.116 | K -1.08 | L -0.228 | M -0.116 | P -0.896 | Q -0.899 | R -0.798 | S -0.326 | T -0.306 | V -0.278 | W -0.012
V61: A -0.054 | C -0.014 | D 0.009 | E 0.012 | F -0.134 | G -0.005 | H 0.011 | I -0.149 | K -0.029 | L -0.012 | M -0.325 | P -0.445 | Q -0.051 | R -0.04 | S 0.128 | T -0.044 | W -0.114 | Y -0.013
R62: C -0.124 | D 0.077 | E -0.307 | F -0.218 | G -0.025 | H -0.233 | L -0.21 | N -0.111 | P -0.37 | Q -0.145 | S -0.065 | T -0.182 | V -0.074 | W -0.102 | Y -0.2
M63: A -0.048 | C -0.058 | D -0.323 | E -0.721 | F -0.081 | G -0.16 | H 0.05 | K -0.459 | L 0.101 | N 0.057 | P -0.614 | Q -0.035 | R -0.404 | S -0.158 | T 0.102 | V 0.047 | W -0.003 | Y -0.108
M64: C 0.067 | D -0.255 | E 0.301 | G 0.008 | H 0.098 | I -0.014 | K -0.075 | L -0.025 | N 0.171 | P -0.555 | Q -0.041 | R 0.109 | S 0.174 | T 0.015 | V 0.157 | W 0.104 | Y 0.209
